Experimental findings from doi:10.1101/2025.03.11.642517 (bioRxiv, 2025) are described below.

The Kd is a measure of binding affinity in units of concentration.

Assay [1] addresses DS90 FcM (DS90 nanobody fused to human monomeric Fc) (alpaca (Vicugna pacos)). Nature of the assay: SPR. On the technique in general: In SPR one partner is held on a chip, and binding of the other changes the refractive index at the surface.
The target of assay [2] is DS76 FcM (DS76 nanobody fused to human monomeric Fc) (alpaca (Vicugna pacos)). The assay is described as follows: SPR.
For assay [3], the target named is DS34 FcM (DS34 nanobody fused to human monomeric Fc) (alpaca (Vicugna pacos)). The assay is described as follows: SPR.
For assay [4], the target named is DS90 Fc dimer (DS90 nanobody fused to human Fc) (alpaca (Vicugna pacos)). The assay is described as follows: SPR.
The target of assay [5] is NiV F expressed in HeLa cells under IRES-GFP (Nipah virus, Malaysia, UniProt Q9IH63). Nature of the assay: immunostaining of cells or tissue.

B1: Biotinylated prefusion NiV F with AviTag (domain or fragment)
chain: ILHYEKLSKIGLVKGVTRKYKIKSNPLTKDIVIKMIPNVSNMSQCTGSVMENYKTRLNGILTPIKGALEIYKNNTHDLVGDVRLAGVIMAGVAIGIATAAQITAGVALYEAMKNADNINKLKSSIESTNEAVVKLQETAEKTVYVLTALQDYINTNLVPTIDKISCKQTELSLDLALSKYLSDLLFVFGPNLQDPVSNSMTIQAISQAFGGNYETLLRTLGYATEDFDDLLESDSITGQIIYVDLSSYYIIVRVYFPILTEIQQAYIQELLPVSFNNDNSEWISIVPNFILVRNTLISNIEIGFCLITKRSVICNQDYATPMTNNMRECLTGSTEKCPRELVVSSHVPRFALSNGVLFANCISVTCQCQTTGRAISQSGEQTLLMIDNTTCPTAVLGNVIISLGKYLGSVNYNSEGIAIGPPVFTDKVDISSQISSMNQSLQQSKDYIKEAQRLLDT
modifications: biotin (on the AviTag, by BirA)
As to B1, the Kd in assay [1] stood at 4.83 nM; in assay [2], 303 nM; in assay [3], 23.4 nM. Also, the binding result in assay [4] is listed as “binds”.

B2: DS90 clone, E. coli crude extract of the bacterial display library (VHH)
VHH: VQLVESGGGLVQAGGSLRLSCAASGRTFSSYVMGWYRQAPGKEREFVARISWSGGHTHSADSVKGRFTISRDNAKNTVYLQMNSLKPDDTAIYYCNAEPTVTGSWFTPGLQSYWGQGTQVTVSS
With B2, in assay [5], the binding result was “binds”.

B3: DS34 clone, E. coli crude extract of the bacterial display library (VHH)
VHH: VQLVESGGGLVQAGGSLRLSCAASGRTFSSYVMGWYRQAPGKEREFVARISWSGGHTHSADSVKGRFTISRDNAKNTVYLQMNSLKPDDTAIYYCNAEPTATGSWFTPGLQSYWGQGTQVTVSS
Turning to B3, the binding result in assay [5] was “binds”.

B4: Bacterially expressed DS90-cMyc (VHH)
VHH: VQLVESGGGLVQAGGSLRLSCAASGRTFSSYVMGWYRQAPGKEREFVARISWSGGHTHSADSVKGRFTISRDNAKNTVYLQMNSLKPDDTAIYYCNAEPTVTGSWFTPGLQSYWGQGTQVTVSS
As for B4, the binding result in assay [5] is reported as “binds”.

B5: DS76 clone, E. coli crude extract of the bacterial display library (VHH)
VHH: VQLVESGGGLVQAGGSLGLSCAASGRTFSSYVMGWYRQAPGKEREFVARISWSGGHTHSADSVKGRFTISRDNAKNTVYLQMNSLKPDDTAIYYCNAEPSVTGSWFTPGLQSYWGQGTQVTVSS
B5: in assay [5], the binding result is “binds”.

B6: DS29 clone, E. coli crude extract of the bacterial display library (VHH)
VHH: VQLVESGGGLVQPGGSLRLSCAASGFTFDDYGMSWVRQAPGKGLEWVSAISWNGGGTYYAESMKGRFTISRDNAKNTVYLQMNGLKPEDTAVYYCAKPSTYSGSWLTDFGSWGQGTQVTVSS
On to B6, for which the binding result in assay [5] is reported as “binds”.
